This is an account of results in US20110104248A1, “LIPOSOMES AND IMMUNOPOTENTIATING COMPOSITIONS CONTAINING THE SAME” (FOODCHEMIFA CO., LTD., priority 2007, published 2011).

Assay [1] relates to C57BL/6 mice. The experiment in a line: Enhancing antibody production: serum anti-OVA IgG2a by ELISA. It counts as in vivo, mouse. Conditions: 25 μg GSL-7 and 25 μg OVA through the caudal vein, serum after 14 days, ELISA absorbance at 405 nm. As to the method:
Liposome F (in an amount so that 25 μg of GSL-7 and 25 μg of OVA were contained) was administered to C57BL/6 mice (8- to 10-week-old females) through the caudal vein. After 14 days, blood was collected and then serum anti-OVA antibody levels were measured by ELISA. An anti-OVA antibody titer (IgG2a) was assayed by adding the gradually diluted serum to a 96-well plate coated with OVA. Alkaline phosphatase (AP)-labeled anti-mouse IgG2a antibodies were used as detection antibodies. The color was developed using paranitrophenylphosphate (p-nitrophenyl phosphate) as a substrate. The reaction was terminated with 3N NaOH, the absorbance at 405 nm was measured using a microplate reader.

Assay [2] has as its system splenocytes stimulated with OVA. The experiment in a line: Antigen-specific IFN-γ production from splenocytes of treated mice. It is filed as in vivo, mouse. As to conditions: 25 μg GSL-7 i.v.; spleen after 1 week; splenocytes stimulated with OVA 1 mg/ml, 96 hours. As to the method: Liposome F (prepared in an amount so that 25 μg of GSL-7 was contained) prepared as in Example 14 was administered to C57BL/6 mice (8- to 10-week-old males) through the caudal vein. After 1 week, the spleen was excised. Splenocytes (5×10^5) were stimulated with OVA (1 mg/ml). After 96 hours, IFN-γ levels in the culture supernatants were measured. IFN-γ levels were measured by sandwich ELISA using purified anti-IFN-γ antibodies (R4-6A2) as capture antibodies and biotin-labeled anti-IFN-γ antibodies (AN-18) as detection antibodies. In the subsequent reaction, alkaline phosphatase-labeled streptavidin was caused to bind to biotin-labeled antibodies. The color was developed using p-nitrophenyl phosphate as a substrate. The absorbance at a wavelength of 405 nm was measured using a microplate reader (MICROPLATE READER Model 550). IFN-γ concentrations in test samples were calculated based on the standard curve of IFN-γ in the recombinant mice.

B1: OVA: ovalbumin (OVA) (SIGMA), antigen (protein, UniProt P01012 2-386, looked up)
Ovalbumin: GSIGAASMEFCFDVFKELKVHHANENIFYCPIAIMSALAMVYLGAKDSTRTQINKVVRFDKLPGFGDSIEAQCGTSVNVHSSLRDILNQITKPNDVYSFSLASRLYAEERYPILPEYLQCVKELYRGGLEPINFQTAADQARELINSWVESQTNGIIRNVLQPSSVDSQTAMVLVNAIVFKGLWEKAFKDEDTQAMPFRVTEQESKPVQMMYQIGLFRVASMASEKMKILELPFASGTMSMLVLLPDEVSGLEQLESIINFEKLTEWTSSNVMEERKIKVYLPRMKMEEKYNLTSVLMAMGITDVFSSSANLSGISSAESLKISQAVHAAHAEINEAGREVVGSAEAGVDAASVSEEFRADHPFLFCIKHIATNAVLFFGRCVSP
As for B1, the “Anti-OVA IgG2a” value in assay [1] is 0.049 ± 0.018. The IFN-γ in assay [2] was 4.79 ± 0.45 ng/mL.
